Measured values as given in the RNAGym collection of RNA variant scans (doi:10.1093/nar/gkz1192).

B1: CPEB3 Ribozyme (parent)
chain: UAACAGGGGGCCACAGCAGAAGCGUUCACGUCGCAGCCCCUGUCAGAUUCUGGUGAAUCUGCGAAUUCUGCUGUAUAUCUC

Variants of: B1
Experiment: self-cleavage, relative activity (ratio to wild type); higher = more cleavage; in vitro, sequencing
How it was run: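 Relative activity was defined as the cleaved/total read fraction for a variant divided by the same fraction for the unmutated ribozyme. CPEB3 self-cleaving ribozyme libraries were made by rounds of error-prone PCR, barcoded, and transcribed in vitro with T7 RNA polymerase for 5 hours at 37°C, and cleavage ran through transcription plus a 15 min DNase I step before EDTA. Illumina sequencing of template-switched reverse transcripts gave the reads, and DNA sequencing mapped the barcodes. Averages come from three batches, using variants with at least 5 reads.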

Row | Variant | self-cleavage
1 | G22U U67C | 0.06
2 | C23A G24A | 0.13
3 | C23G A75G | 0.14
4 | C23G A75U | 0.07
5 | G22C A35U | 0.12
6 | G22C A35G | 0.32
7 | C23A U51C | 0.27
8 | C23A U51A | 0.37
9 | A21U U74A | 0.76
10 | A21U U74C | 0.76
11 | C23A A47U | 0.47
12 | C23A A47G | 0.41
13 | C23G U78A | 0.32
14 | C23G U78C | 0.28
15 | C23A G52U | 0.15
16 | C23U G24A | 0.22
17 | G22A U60A | 0.08
18 | G22A U60C | 0.28
19 | G22C U25C | 0.45
20 | G22A | 0.29
21 | G22U | 0.27
22 | G22C | 0.26
23 | G22A U49C | 0.11
24 | C23U U26C | 0.2

Row | Variant | self-cleavage
25 | C23U U26A | 0.24
26 | C23U G55A | 0.24
27 | G22U U43A | 0.34
28 | G22U U43C | 0.3
29 | C23U G46A | 0.06
30 | C23A A35G | 0.27
31 | C23A A35U | 0.31
32 | G22A A47G | 0.48
33 | C23G A28G | 0.17
34 | C23G A28U | 0.23
35 | A21U U41A | 0.26
36 | A21U U41C | 0.34
37 | C23U C37U | 0.2
38 | C23U A57G | 0.31
39 | C23U A57U | 0.19
40 | C23U C39A | 0.19
41 | C23U C39U | 0.24
42 | G22C U41A | 0.29
43 | G22C U41C | 0.1
44 | C23A C81G | 0.22
45 | C23A C62U | 0.21
46 | C23U A77G | 0.34
47 | C23U A77U | 0.23
48 | G22A U78C | 0.19

Row | Variant | self-cleavage
49 | C23A U43A | 0.28
50 | C23A U43C | 0.23
51 | A21U U78A | 0.38
52 | A21U U78C | 0.25
53 | A21U C81U | 0.29
54 | A21U C81A | 0.45
55 | G22A C38U | 0.17
56 | G22A U41C | 0.37
57 | G22A U41A | 0.19
58 | C23U C38U | 0.13
59 | C23U C38A | 0.16
60 | C23G U67A | 0.25
61 | C23G U67C | 0.12
62 | C23A U72A | 0.08
63 | C23A U72C | 0.41
64 | C23G C62A | 0.29
65 | C23A A56G | 0.2
66 | A21U G73A | 0.88
67 | G22A A45U | 0.11
68 | G22A A45G | 0.14
69 | A21U G30A | 0.1
70 | C23G U49C | 0.16
71 | C23G U31C | 0.41
72 | C23U A65G | 0.43

Row | Variant | self-cleavage
73 | A21U G52A | 0.33
74 | C23G U66C | 0.15
75 | C23G U74C | 0.41
76 | C23G U74A | 0.28
77 | A21U U67A | 0.19
78 | A21U U67C | 0.2
79 | A21U U25C | 0.29
80 | A21U U25A | 0.22
81 | G22C G42U | 0.11
82 | G22A U80C | 0.5
83 | C23G U80A | 0.47
84 | C23G U80C | 0.13
85 | G22A A65G | 0.23
86 | G22A A65U | 0.08
87 | C23U U43A | 0.34
88 | C23U U43G | 0.11
89 | C23U U43C | 0.3
90 | C23A A65G | 0.28
91 | G22U U31A | 0.32
92 | G22U U31C | 0.11
93 | A21U C71U | 0.16
94 | A21U C71G | 0.09
95 | C23A G36U | 0.25
96 | G22A U25A | 0.18

Row | Variant | self-cleavage
97 | C23G U41C | 0.21
98 | C23G U41A | 0.1
99 | A21U G61A | 0.34
100 | G22A U69A | 0.24
101 | G22A U69G | 0.06
102 | G22A U72C | 0.23
103 | A21U G42C | 0.29
104 | C23G A77U | 0.36
105 | C23G A77G | 0.67
106 | C23G A77C | 0.27
107 | C23A U48C | 0.16
108 | A21U G53A | 0.29
109 | C23G U43C | 0.25
110 | C23U A64U | 0.16
111 | C23U A64C | 0.09
112 | C23U A64G | 0.26
113 | A21U C62U | 0.01
114 | G22U A28U | 0.17
115 | G22U A28G | 0.17
116 | C23A G63A | 0.09
117 | G22A U58C | 0.27
118 | G22A U26C | 0.19
119 | G22A U26A | 0.38
120 | G22U U26A | 0.26

Row | Variant | self-cleavage
121 | G22U U26C | 0.11
122 | G22A U76C | 0.25
123 | G22A U54C | 0.2
124 | C23A C38U | 0.49
125 | G22C G53C | 0.07
126 | C23U A45C | 0.45
127 | C23U A45U | 0.27
128 | C23U A45G | 0.25
129 | C23A U26A | 0.49
130 | G22C U78A | 0.06
131 | G22C U67A | 0.16
132 | G22C U67C | 0.11
133 | C23U C32U | 0.14
134 | C23U U25A | 0.14
135 | C23U U25C | 0.19
136 | G22C U80G | 0.27
137 | C23A A45C | 0.34
138 | C23A A45G | 0.23
139 | C23A C44U | 0.08
140 | G22A G53A | 0.6
141 | G22C A57G | 0.32
142 | C23A G73A | 0.23
143 | C23A C40G | 0.23
144 | G22C A64G | 0.24

Row | Variant | self-cleavage
145 | G22C A64U | 0.16
146 | G22A G52U | 0.38
147 | A21U G70C | 0.05
148 | G22U U80C | 0.24
149 | G22U C71U | 0.08
150 | G22A C37A | 0.09
151 | G22A U48G | 0.32
152 | G22A U48A | 0.07
153 | G22A U48C | 0.19
154 | C23G U58C | 0.21
155 | G22A C68G | 0.11
156 | C23U C62G | 0.09
157 | C23G A64G | 0.08
158 | C23G A64U | 0.26
159 | C23A U41C | 0.34
160 | C23A U41A | 0.35
161 | G22A A28U | 0.12
162 | G22A A28G | 0.4
163 | G22A A28C | 0.21
164 | A21U C50U | 0.4
165 | A21U C50A | 0.18
166 | A21U U72A | 0.26
167 | A21U U72C | 0.53
